For 13 molecules, Kd results are on record in US20190071480A1 (Biogen, published 2019).

In test [1] the target is T1, extracellular domain of activin receptor type IIB (ActRIIBecd), biotinylated (Homo sapiens (Human), UniProt Q13705 27-117, amino-biotinylated with amine-PEG3-Biotin).
T1 construct: immobilised on a streptavidin-coated sensor chip; also called biotinylated ActRIIBecd; extracellular domain of ActRIIB
T1 sequence: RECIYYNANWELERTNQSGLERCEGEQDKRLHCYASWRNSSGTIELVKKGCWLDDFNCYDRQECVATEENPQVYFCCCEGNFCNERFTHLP
Description: BIAcore SPR, biotinylated ActRIIBecd on chip; SD ±13.97 nM. As for the experimental part: (§1) Biosensor experiments. In one embodiment, experiments were performed on a BIAcore™ T100/T200 instrument (Pharmacia Biosensor AB) in the multichannel mode (serial flow path involving flow cells 1+2+3+4). Flow rate was 10 μl/min; temperature was 25° C.; and data were recorded at 2.5 points/s. All four segments of a sensor chip CMS were coated with streptavidin (Sigma) to a density of 2000 pg/mm² (2000 resonance units) by the aminocoupling procedure. ActRIIBecd (10 mg) and amine-PEG3-Biotin (10 mg, Pierce, Rockford, Ill.) were dissolved in 200 μl H₂O and 10 mg NaCNBH₃ was added to prepare biotinylated ActRIIBecd. The reaction mixture was heated at 70° C. for 24 h, after that a further 10 mg NaCNBH₃ was added and the reaction was heated at 70° C. for another 24 h. After cooling to room temperature, the mixture was desalted with the spin column (3,000 molecular weight cut off (MWCO)). […] Sensograms were recorded during flow of the analyte (the ActRIIBecd-associated polypeptides (i.e., domains) as previously described) first through flow cell 1 (control) then through flow cell 2 (biotinylated ActRIIBecd). […] The sensograms obtained at 1.11, 3.33, 10, 30, and 90 nM analyte were evaluated for equilibrium binding, association rate, and dissociation rate by using the programs supplied with the instrument (BIA evaluation 2.1; Software Handbook. 1995; Pharmacia Biosensor AB).

Test [2] concerns the target T1, extracellular domain of activin …. As to the kind of experiment: BIAcore SPR, biotinylated ActRIIBecd on chip; SD ±12.10 nM. How it is done: as §1
(SPR reads the build-up and loss of mass on a sensor chip optically.)

Test [3] has the same target. As to the kind of experiment: BIAcore SPR, biotinylated ActRIIBecd on chip; SD ±12.04 nM. How it is done: as §1
For test [4] the target is unchanged. As to the kind of experiment: BIAcore SPR, biotinylated ActRIIBecd on chip; SD ±13.24 nM. As for the experimental part:
as §1

The target is the same in test [5]. As to the kind of experiment: BIAcore SPR, biotinylated ActRIIBecd on chip; SD ±11.61 nM. How it is done: as §1
The target is the same in test [6]. Description: Mean KD column of Table 5; method not restated (BIAcore as Example 5); species also listed in Table 4. The essentials: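 Biotinylated ActRIIBecd was captured on a streptavidin-coated sensor chip at 50-250 RU, and the polypeptides, diluted in glycine buffer pH 4.5, were injected at 1.11, 3.33, 10, 30 and 90 nM. Runs were at 25° C and 10 μl/min, with reference-cell sensograms subtracted before fitting equilibrium binding, association and dissociation rates.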

Test [7] shares this target. As to the kind of experiment: BIAcore SPR as Example 5 (method not restated); SD ±2.01 nM. As for the experimental part:
as §1

For test [8] the target is unchanged. Description: BIAcore SPR, biotinylated ActRIIBecd on chip; SD ±12.01 nM. How it is done: as §1
Test [9] has the same target. Description: BIAcore SPR, biotinylated ActRIIBecd on chip; SD ±14.78 nM. How it is done:
as §1

The target is the same in test [10]. Description: BIAcore SPR, biotinylated ActRIIBecd on chip; SD ±16.71 nM. How it is done: as §1
For test [11] the target is unchanged. Description: BIAcore SPR, biotinylated ActRIIBecd on chip; SD ±15.39 nM. As for the experimental part:
as §1

For test [12] the target is unchanged. Description: BIAcore SPR as Example 5 (method not restated); SD ±2.12 nM. As for the experimental part:
as §1

The target is the same in test [13]. As to the kind of experiment: BIAcore SPR, biotinylated ActRIIBecd on chip; SD ±14.25 nM. How it is done: as §1
Test [14] shares this target. Description: BIAcore SPR, biotinylated ActRIIBecd on chip; SD ±10.27 nM. As for the experimental part: as §1

B1: Recombinant polypeptide of clones 10 + 19 + 14 (designed binder)
chain: AQAKHKQRKRLKSSCKRHPLYNSKDPKACCVPTELSAPSPLYLDENEKPVLKNYQDMVVHGCGCRVDFKDVGWNDHAVAPPGYHAFYCHGECPFPLADHLNSDNHAIVQTKVNSV
For B1, the affinity in test [1], expressed as Kd, was 0.017 µM.

B2: Recombinant polypeptide of clones 8 + 21 + 15 (designed binder)
chain: GQAKRKGYKRLKSSCKRHPLYNSKIPKACCVPTELSAISMLYLDENEKVVLKNYQDMVVEGCGCRVDFSDVGWNDWIVAPPGYHAFYCHGECPFPLADHLNSTNHAIVQTLVNSV
B2: the Kd (commonly a measure of binding affinity in units of concentration) in test [2] amounted to 0.0171 µM.

B3: Recombinant polypeptide of clones 8 + 15 + 19 (designed binder)
chain: GQAKRKGYKRLKSSCKRHPLYVDFSDVGWNDWIVAPPGYHAFYCHGECPFPLADHLNSTNHAIVQTLVNSVNSKDPKACCVPTELSAPSPLYLDENEKPVLKNYQDMVVHGCGCR
Regarding B3, the Kd in test [3] amounted to 0.0165 µM.

B4: Recombinant polypeptide of clones 8 + 14 + 19 (designed binder)
chain: GQAKRKGYKRLKSSCKRHPLYVDFKDVGWNDHAVAPPGYHAFYCHGECPFPLADHLNSDNHAIVQTKVNSVNSKDPKACCVPTELSAPSPLYLDENEKPVLKNYQDMVVHGCGCR
As to B4, the Kd in [4] stood at 0.0156 µM.

B5: Recombinant polypeptide of clones 10 + 14 + 21 (designed binder)
chain: AQAKHKQRKRLKSSCKRHPLYVDFKDVGWNDHAVAPPGYHAFYCHGECPFPLADHLNSDNHAIVQTKVNSVNSKIPKACCVPTELSAISMLYLDENEKVVLKNYQDMVVEGCGCR
Regarding B5, in [5], the Kd turned out to be 0.018 µM.

B6: SEQ ID NO: 194, cysteine pairs C23-C65^a (designed binder)
chain: VDFSDVGWNDWIVAPPGYHAFYCHGECPFPLADHLNSTNHAIVQTLVNSVAQAKHKQRKRLKSSCKRHPLY
modifications: disulfides C23-C65 (intra)
As to B6, the Kd in [6] and in [7] was 0.046 µM in each case.

B7: Recombinant polypeptide of clones 19 + 8 + 14 (designed binder)
chain: NSKDPKACCVPTELSAPSPLYLDENEKPVLKNYQDMVVHGCGCRGQAKRKGYKRLKSSCKRHPLYVDFKDVGWNDHAVAPPGYHAFYCHGECPFPLADHLNSDNHAIVQTKVNSV
B7 had a Kd in test [8] of 0.016 µM.

B8: Recombinant polypeptide of clones 14 + 8 + 19 (designed binder)
chain: VDFKDVGWNDHAVAPPGYHAFYCHGECPFPLADHLNSDNHAIVQTKVNSVGQAKRKGYKRLKSSCKRHPLYNSKDPKACCVPTELSAPSPLYLDENEKPVLKNYQDMVVHGCGCR
In turn, B8 returned a Kd in [9] of 0.0176 µM.

B9: Clone No. 9 domain (ActRIIBecd-associated polypeptide) (peptide)
chain: AQAKHKGYKRLKSSCKRHPLY
B9: in [10], the Kd turned out to be 0.0524 µM.

B10: Clone No. 8 domain (ActRIIBecd-associated polypeptide) (peptide)
chain: GQAKRKGYKRLKSSCKRHPLY
As to B10, the Kd in [11] was found to be 0.0451 µM.

B11: SEQ ID NO: 188, cysteine pairs C15-C44^a (designed binder)
chain: AQAKHKQRKRLKSSCKRHPLYVDFSDVGWNDWIVAPPGYHAFYCHGECPFPLADHLNSTNHAIVQTLVNSV
modifications: disulfides C15-C44 (intra)
Consider B11, for which the Kd in test [6] and in test [12] was 0.0423 µM throughout.

B12: Recombinant polypeptide of clones 21 + 10 + 15 (designed binder)
chain: NSKIPKACCVPTELSAISMLYLDENEKVVLKNYQDMVVEGCGCRAQAKHKQRKRLKSSCKRHPLYVDFSDVGWNDWIVAPPGYHAFYCHGECPFPLADHLNSTNHAIVQTLVNSV
As to B12, binding in test [13] was put at a Kd of 0.0167 µM.

B13: Recombinant polypeptide of clones 19 + 14 + 8 (designed binder)
chain: NSKDPKACCVPTELSAPSPLYLDENEKPVLKNYQDMVVHGCGCRVDFKDVGWNDHAVAPPGYHAFYCHGECPFPLADHLNSDNHAIVQTKVNSVGQAKRKGYKRLKSSCKRHPLY
Molecule B13 registered a Kd in test [14] of 0.0141 µM.
